Legend:
SSF (full-length) = target: T1, SSF (full-length) (Escherichia coli F plasmid, UniProt P18310 1-179); assay: MST
T1 sequence: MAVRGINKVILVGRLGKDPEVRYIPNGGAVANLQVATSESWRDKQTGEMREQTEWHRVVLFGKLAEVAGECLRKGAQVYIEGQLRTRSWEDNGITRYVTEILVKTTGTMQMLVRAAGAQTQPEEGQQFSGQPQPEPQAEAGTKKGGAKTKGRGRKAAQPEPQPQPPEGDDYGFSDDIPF

SSB (full-length) = SSB (full-length) (Escherichia coli, UniProt P0AGE0 1-178); assay: MST
Chain of SSB (full-length) (P0AGE0 whole entry): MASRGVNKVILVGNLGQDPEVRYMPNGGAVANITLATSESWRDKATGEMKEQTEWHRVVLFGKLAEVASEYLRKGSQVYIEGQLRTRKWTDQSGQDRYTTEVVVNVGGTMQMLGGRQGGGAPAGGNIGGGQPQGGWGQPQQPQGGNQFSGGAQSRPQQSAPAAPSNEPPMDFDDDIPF

GGCAAATTACTCCTGTAATTTGCC (structured_DNA) [hairpin dsDNA]
Kd (SSF (full-length)): 45.3 µM | binding result (SSB (full-length)): no binding
